Here are results for 3 molecules from US20090130134A1, “T CD4+ Epitopes of Type I and II Latency Antigens of the Epstein-Barr Virus, Which Can Be Recognized by the majority of individuals in the caucasian populations and applications thereof” (priority 2005, published 2009).

Assay [1] has as its target T1, HLA-DP4 (DPB1*0402) (human), P20036.
T1 chain 1: not shown
T1 chain 2: not shown
The assay can be described thus: competition ELISA, tracer Oxy 271-287. A general note: ELISA stands for enzyme-linked immunosorbent assay.

The target of a further assay is HLA-DR7 (human). The assay can be described thus: competition ELISA, tracer YKL.
The next assay concerns the target HLA-DR1 (human). The assay can be described thus: competition ELISA, tracer HA 306-318.
In a further assay the target is HLA-DR11 (human). The assay can be described thus: competition ELISA, tracer HA 306-318.
The target in a further assay is HLA-DR15 (human). The assay can be described thus: competition ELISA, tracer A3 152-166.
The target of assay [2] is T2, HLA-DP4 (DPB1*0401) (human), P20036.
T2 chain 1: not shown
T2 chain 2: not shown
The assay can be described thus: competition ELISA, tracer Oxy 271-287.

The target in a further assay is HLA-DRB5 (human). The assay can be described thus: competition ELISA, tracer not stated.
A further assay has as its target HLA-DR4 (human). The assay can be described thus: competition ELISA, tracer HA 306-318.

B1: D31D (peptide)
peptide: DPHLPTLLLGTSGSGGDDDDPHGPVQLSYYD
modifications: not checked
The IC50 is the point on the concentration scale where inhibition reaches its midpoint. Low values mean inhibition by little substance, high ones a need for much substance. With B1, the IC50 in assay [1] was found to be 28300 nM; in the assay with HLA-DR7 (human), 27500 nM; with HLA-DR1 (human) it was 17300 nM; with HLA-DR11 (human), 25000 nM; in the assay with HLA-DR15 (human) it was 251 nM.

B2: A16L (peptide)
peptide: ALWNLHGQALFLGIVL
modifications: not checked
For B2, the IC50 in assay [1] was found to be 725 nM; in assay [2] it was 1180 nM; with HLA-DR7 (human), 122 nM; with HLA-DRB5 (human), 2680 nM; in the assay with HLA-DR1 (human), 79 nM; in the assay with HLA-DR11 (human) it was 11000 nM. Moreover, in the assay with HLA-DR15 (human), the half-maximal inhibitory concentration (IC50) was found to be 48 nM.

B3: A15V (peptide)
peptide: ASSYAAAQRKLLTPV
modifications: not checked
For the molecule B3, the IC50 with HLA-DR7 (human) was found to be 1730 nM; with HLA-DRB5 (human) it was 463 nM; with HLA-DR1 (human), 1200 nM; with HLA-DR11 (human) it was 4 nM; with HLA-DR4 (human) it was 35500 nM; in the assay with HLA-DR15 (human), 26500 nM.
